{"source": "paper doi:10.1101/2020.10.13.338178", "key": {"[1]": {"target": "Plasmodium vivax M1 aminopeptidase (Plasmodium vivax)"}, "[2]": {"target": "Plasmodium berghei M1 aminopeptidase (Plasmodium berghei)"}, "[3]": {"target": "T1, Plasmodium falciparum M17 leucine aminopeptidase (Plasmodium falciparum) (UniProt Q8IL11)", "T1 sequence": "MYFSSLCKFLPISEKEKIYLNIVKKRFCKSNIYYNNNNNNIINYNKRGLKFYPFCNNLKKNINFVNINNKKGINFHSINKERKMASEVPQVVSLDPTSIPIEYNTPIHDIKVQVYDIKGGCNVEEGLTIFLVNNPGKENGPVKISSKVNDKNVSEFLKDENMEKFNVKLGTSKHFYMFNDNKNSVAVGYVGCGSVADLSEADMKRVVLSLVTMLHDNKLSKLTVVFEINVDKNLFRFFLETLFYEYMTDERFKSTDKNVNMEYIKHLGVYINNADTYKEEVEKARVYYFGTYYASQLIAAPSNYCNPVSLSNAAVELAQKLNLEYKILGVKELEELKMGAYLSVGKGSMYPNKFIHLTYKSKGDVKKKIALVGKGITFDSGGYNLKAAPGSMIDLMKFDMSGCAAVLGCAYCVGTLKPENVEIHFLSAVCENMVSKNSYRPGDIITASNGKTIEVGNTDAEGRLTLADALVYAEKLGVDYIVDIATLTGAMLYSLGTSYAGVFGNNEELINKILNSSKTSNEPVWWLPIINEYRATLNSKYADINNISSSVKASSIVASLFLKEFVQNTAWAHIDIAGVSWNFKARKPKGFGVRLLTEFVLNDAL"}, "[4]": {"target": "Plasmodium berghei M17 aminopeptidase (Plasmodium berghei)"}, "[5]": {"target": "T2, Plasmodium vivax M17 aminopeptidase (Plasmodium vivax) (UniProt A5K3U9)", "T2 sequence (A5K3U9 74-621, looked up)": "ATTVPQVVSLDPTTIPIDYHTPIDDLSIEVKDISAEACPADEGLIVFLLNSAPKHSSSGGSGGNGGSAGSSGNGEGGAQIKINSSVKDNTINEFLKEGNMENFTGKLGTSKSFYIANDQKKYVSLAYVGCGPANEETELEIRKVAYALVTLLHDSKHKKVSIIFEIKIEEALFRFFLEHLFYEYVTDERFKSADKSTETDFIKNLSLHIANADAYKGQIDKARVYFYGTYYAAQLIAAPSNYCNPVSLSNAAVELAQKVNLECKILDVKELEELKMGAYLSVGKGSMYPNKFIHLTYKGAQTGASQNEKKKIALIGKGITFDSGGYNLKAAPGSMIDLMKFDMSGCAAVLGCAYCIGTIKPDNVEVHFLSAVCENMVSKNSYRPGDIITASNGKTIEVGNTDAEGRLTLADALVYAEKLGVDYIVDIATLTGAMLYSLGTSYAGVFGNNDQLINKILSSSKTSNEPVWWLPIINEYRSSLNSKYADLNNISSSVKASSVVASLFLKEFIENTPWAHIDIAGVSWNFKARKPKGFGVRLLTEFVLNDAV"}}, "note": "No end group written: not given here. *: point of attachment. AMC = Cc1cc(=O)oc2cc(N*)ccc12"}
{"molecule": "Leucine-Leucine-7-amido-4-methyl-coumarin (peptide)", "values": [{"measurement": "Km of hydrolysis (release of NHMec, Michaelis-Menten kinetics)", "setting": "[1]", "value": 27.9, "unit": "µM"}, {"measurement": "Km of hydrolysis (release of NHMec, Michaelis-Menten kinetics)", "setting": "[2]", "value": 28.4, "unit": "µM"}, {"measurement": "Km of hydrolysis (release of NHMec, Michaelis-Menten kinetics, 1 mM CoCl2)", "setting": "[3]", "value": 30.8, "unit": "µM"}, {"measurement": "Km of hydrolysis (release of NHMec, Michaelis-Menten kinetics, 1 mM CoCl2)", "setting": "[4]", "value": 25, "unit": "µM"}, {"measurement": "Km of hydrolysis (release of NHMec, Michaelis-Menten kinetics, 1 mM CoCl2)", "setting": "[5]", "value": 32.9, "unit": "µM"}]}
{"molecule": "LLLL-{AMC}", "note": "[Leucine-Leucine-Leucine-Leucine-7-amido-4-methyl-coumarin]", "values": [{"measurement": "Km of hydrolysis (release of NHMec, Michaelis-Menten kinetics)", "setting": "[1]", "value": 41.5, "unit": "µM"}, {"measurement": "Km of hydrolysis (release of NHMec, Michaelis-Menten kinetics)", "setting": "[2]", "value": 33.9, "unit": "µM"}, {"measurement": "Km of hydrolysis (release of NHMec, Michaelis-Menten kinetics, 1 mM CoCl2)", "setting": "[3]", "value": 6.9, "unit": "µM"}, {"measurement": "Km of hydrolysis (release of NHMec, Michaelis-Menten kinetics, 1 mM CoCl2)", "setting": "[4]", "value": 4.6, "unit": "µM"}, {"measurement": "Km of hydrolysis (release of NHMec, Michaelis-Menten kinetics, 1 mM CoCl2)", "setting": "[5]", "value": 22.6, "unit": "µM"}]}
